From the nanobody polyreactivity screen of Harvey et al. (2022) come the findings set out here.

This series is described as follows: yeast display, Sf9 membrane polyspecificity reagent, FACS + sequencing; frameworks hold sequencing errors. The method in brief: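 In a synthetic yeast display library (Saccharomyces cerevisiae BJ5465), nanobody expression was induced with galactose for 36–48 hours. FACS gates were set low and high (top ~1%) using anti-HA fluorescence for expression and streptavidin fluorescence for binding of the Sf9 membrane reagent. Each polyreactivity label is drawn from the gate of origin.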
In the case of “QVQLVEKGGGLVQAGGSLRLSCAPSGGLFSKNAMGCYRQAPGKVRELVAGISSGGTTYYADSVKGRFTISRDNAKNTGYLQMNSLKPEDSAVYYCAVPYYRRLGPLNDSWGQGTQVTVSS”, the “polyreactivity (PSR sort gate)” value is reported as “low polyreactivity”. As for “QVQLVESGGGLVQAGGSLRLSCAASGSIFEWYAMGWYRQAPGKVRELVADITYNGGSTYYADSVKGRFTISRDNAKNTVYLQMNSLKPEDTAVYYCAADYFVQVPDYYYASEYGYWGQGTQVTVSS”, the “polyreactivity (PSR sort gate)” value is recorded as “low polyreactivity”. With “QVQLVESGGGLVQAGGSLRLICAASGSIFDKYARGWYRQEPGKERELVAAIDSGDTYYADSVKGRFTISRDNAKNTVYLQMNSLKPEDTAVYYCAADDVQYEYDYWGQGTQVTVSS” the entry was “low polyreactivity”.

For the sequence “HVQLQESGGGLVQAGGSLRLSCGASGNISYSRSMGCYRQAPGKERELVAAIDRGAITYYADSVKGRFTISRDNAKNTVYLQIYSLKPEDTAVYYCAAVYHDRWDHRYWGQGTQVTVCS”, the “polyreactivity (PSR sort gate)” value is reported as “high polyreactivity”. As to “QVQLVESGGGLVQAGGSLRLSCAASGSTFDIYAMGWYRQAPGKERELVAAISVSDVDTYYADSVKGRFTISRDNAKNTVYLQMNSLKPEDTAVYYCAAETPTHDEWGQGTQVTVSS”, the “polyreactivity (PSR sort gate)” value is “high polyreactivity”. Then “QVQLVESGGGLVQAGGSLRLSCPASGYTFYKNAMGWYRQPPGKERELVAAISYSGGRTYYADSVKGRFTISRDNAKNTVYLQMNSLKPEDTAVYYCAKATRVITDDGSYGYWGQGSQVTVSS”, with “high polyreactivity”; and “QVQLVESGGGLVQAGGSLRLSCAASGITFTDNTMGWYRQAPGKERELVAAISRSGTSTYYADSVKGRFTISRDNAKNTVYLQMNSLKPEDTAVYYCAALSYVPSPYYYWGQGTQVTVSS”, with “high polyreactivity”; and “QVQLVESGGGLVQAGGSLRLSCAASGSTLTSNAMGWYRQAPGKERELVAAIRSGGSTNYADSVKGRFTISRDNAKNTVYLQMNSLKPEDTAVYYCNKDVLWQGYGYSRVSYDYWGQGTQVTVSS”, with “low polyreactivity”. On to “QVQLVESGGGLVQAGGSLRLSCAASGYIFVHYAMGWYRQEPGKERELVAAISKSGSSTYYADSVKGRFTISRDNAKNTVYLQMHSLKPEDTAVYYCAGVYPYVSGYTYGYWGQGTQVTVSS”, for which the “polyreactivity (PSR sort gate)” value was “low polyreactivity”. For the sequence “QVQLVESGGGLVQAGGSLRLSCAASGSIFLAYAMGWYRQAPGKERELVASTYYADSVKGRFTISRDNAKNTVYLQMNSLKPEDTAVYYCAADRIYSIYVSPYYSFGYWGQGTQVTVSS”, the “polyreactivity (PSR sort gate)” value was “low polyreactivity”. Then “QVQLVESGGGLVQAGGSLRLSCAASGSTFQSYAMGWYRQAPWKERELVAAITTTGTRTYYADSVKGRFTISRDNAKNTVYLQMNSLKPEDTAVYYCNAQRLQAHRTSRRYGYWGQGTQVTVSS”, with “high polyreactivity”; and “QVQLVESGGGLVQAGGSLRLSCAASGFTFWYYAMGWYRQAPGKERELVATITSGDSTKYADSVKGRFTISRDNAKNTVYLQMNSLKPEDTAVYDCAAEKVLPFIGYDYWGQGTQVTVSS”, with “low polyreactivity”.

As for “QVQLEESGGGLVQAGGRLRLSCAASGRTFGANAMGWYRQAPGKERELVATIRRGGSTYYADSVKGRFTISRDNAKNTFYLQMHSLKPEDTAVYYCATQYHSYAKEYDYWGQGTQVTVSS”, the “polyreactivity (PSR sort gate)” value is reported as “low polyreactivity”. “QVQLVESGGCLVQAGGRLRLSSAASGRTIGWNAMGWYRQAPGTEREFVAAITISGGDTYYADSVKGRFTISRDNAKNNVYFQMNSLKPEDTAVYYCAATSTWRPSFEMDYWGQGTQVTGSS”: the “polyreactivity (PSR sort gate)” value is “low polyreactivity”. Then “QVQLVESGGGLVQAGGSLRLSCAASGRIFGVNAMGGDRQAPGKERELVAVISSGGSTYYADSVKGRFTISRDNAKNTVYLQMNSLKPEDTAVYYCAAGYLPDYDYWGQGTQVTVSS”, with “low polyreactivity”; and “QVQLVESGGGLVQAGGSLRLSCPASGSTFLFNAMGWYRQAPGKERELVAAIRSDGSTDYADSVKGRFTISRDNAKTTVYLQMNSLKPEDTAVYYCAAESITGYVSDFDYWGQGTQVTVSS”, with “low polyreactivity”.

In the case of “QVQLVESGGGLVQAGGSLRLSCAASGFTFRYYTMGWYRQAPGKERELVASISRRGGSTYYADSVKGRFTISRDNAKNTVFLQMNSLKPEDTAVYYCNTLSQVFASRAPKFDYWGQGTQVTVSS”, the “polyreactivity (PSR sort gate)” value is listed as “high polyreactivity”. Then “QVQLVESGGVLVQAGGSLRLSCAASGYINGRYVMGWYRTAPGKETELVAAITSSGGSTYYADSVKGRFTISRDNAKNTVYLQINILSPDDTAVYYCAAPTYGRFLRNDYWGPGTQVTVSS”, with “high polyreactivity”. Take “HVQLVESGGGLVQAGGSLRLSCAASGSIFEYYAMGWYRQAPGKERELVASISRGTSTNYADSVKGRFTISRDNAKNTVYLQMNSLKPEDTAVYYCNADGWTVVLDTYGSWGQGTQVTVSS”: the “polyreactivity (PSR sort gate)” value is given as “low polyreactivity”. With “QVQLVESGGGFVQAGGSLRLSCAGSGRIYYRYAMGWYSQERGKERELVAAISGSVGSTYADYVKGRFTISRDNAKNTVYLQMKSLKPEDTAFYYCARETYGRYGAYDYWGQGTQVTVSS” the entry was “low polyreactivity”; with “QVQLVESGGGLVQAGGSLRLSCAASGSTIRANAMGWYRQAPGKERELVAAITKNGGSTYYADSVKGRFTISRDNAKNTVYLQMNSLKPEDTAVYYCAARRSSRRPPYYYWGQGTQVTVSS”, “high polyreactivity”; with “QVQLVESGGGLVQAGGSLRLSCAASGFIFGYYAMGWYRQAPGKERELVAAISSRGGSTYYADSVKGRFTISRDNAKNTVYLQMNSLIPEDTAVYYCAVRLVSFRHNFGQYDYWGQGTQLTVSS”, “high polyreactivity”. Then “QVQLVESGGGLVQAGGSLRLSCAASGSTFGYYAMGWSRQAPGKERELVAAITGSGGSTYYADSVKGRFTISRDNAKNTVYLQMNSLKPEDTAVYYCATSYLLGRYYEYYYWGQGTQVTVSS”, with “high polyreactivity”. Then “QVQLVESGGGLVQAGGSLRLSCAASGSTFVHYDMGWYRQAPGKERELVAGSTTGGSTNYADSVKGRFTISRDNAKNTVYLQMNSLKPEDTAVYYCNADSYPNLVPDYLYYWYEYWGQGTQVTVSS”, with “low polyreactivity”; and “QVQLVESGGGLVQAGGSLRLSCAASGSIFKWYAMGWYRQAPGKERELVAAITRGGSTNYADSVKGRFTISRDNAKNTVYLQMNSLKPEDTAVYYCNAVYTYRSGFGYWGQGTQVTVSS”, with “low polyreactivity”; and “QVQLVESGGGLVQAGGSLRLSCAASGSTFFEYTMGWYRQAPGKEREFVADIRGRDGSTSYADSVKGRFTISRDNAKNTVYLQMNSLKPEDTAVYYCAVGVYPSYRGPTFSTRRDYWGQGTQVTVSS”, with “low polyreactivity”. As to “QVQLVESGGGIVQAGGSLRLSCAASGSTFDVYAMGWYRQAPGKERELVAVINTSGTRTYYADSVKGRFTISRDNAKNTVYLQMNSLKPEDTAVYYCAVSYLSTLGRSRYDYWGQGTQVTVSS”, the “polyreactivity (PSR sort gate)” value is reported as “low polyreactivity”. For “QVQLVESGGGLVQAGGSLRLSCAASGSTFRYNDMGWYRQAPGKERELVADITSGGGTYYADSVKGRFTISRDNAKNTVYLQMNSLKPEDTAVYYCNADGFYDYPGWYGLVYWYDYWGQGTQVTVSS”, the “polyreactivity (PSR sort gate)” value is “high polyreactivity”. With “QVQLVESGGGFFQAGGSLRLSCAASGNTFGINAMRWYREAPGKERELVAAISWSGDRTYYADSVKGRFTISRDNAKNTVYLQMNSLKPEDTAVYYCAAGKYRFTYYALEYDYWGQGTQVTVSS” the entry was “low polyreactivity”; with “QVQLVESGGGLVQAGGTLRLSCADSGSTFTYNAMGWYRQAPGKERELVASISSGTTTYYADSVKGRFTISRDNAKNTVYLQMNSLKPEDTAVYYCAVDSWSRVQGWLAHNYDYWGQGTQVTVSS”, “low polyreactivity”. With “QVQLVESGGGLVQAGGSLRLSCAASGSTFLQNAMGWYRQAPGKERELVAAISRSGGSTYYADSVKGRFTISRDNAKNTVYLQMNSLKPEDTAVYYCAAGGRRYDDDYWGQGTQVTVSS” the entry was “high polyreactivity”; with “QVQLVESGGGLVQAGGSLRLSCAASGFIFRYYAMGWYRQAPGKERELFAAISWSGGTTYYADSVKGRFTISRDNAKNTVYLQMNSLKPEDTAVYYCNAGYNGKRRDPVDYWGQGTQVTVSS”, “low polyreactivity”.

“LVQLVESGGGLVQAGGSLRLSCAASGSIFRRYAMGWYRQAPGKERELVAAISRNSGRTYYADSVKGRFTISRDNAKNTVYLQTNSLKPEDTAVYYCAKLTLSSRWYYIYDYWGQGTQVTVSS”: the “polyreactivity (PSR sort gate)” value is listed as “high polyreactivity”.

With “QVQHVESGGGLVQAGGSLRLSCAASGFIFASYTMGWYRQAPGKERELVATISRGGSTYYADSVKGRFTISRDNAKNTVYLQMNSLKPEATAVYYCATDVGKRAGYYGGVYPDFDYWGQGTQVTVSS”, the “polyreactivity (PSR sort gate)” value was “low polyreactivity”. For the sequence “QVQLVESGGGLVQAGGSLRLSCAASGTFYYYAMGWYRPAPGKERELVAAIDYSGGSTYYADSVKGRFTISRDNAKNTVYLQMNSLKPEDTAVYYCAYVSVYDFEYWGQGTQVTVSS”, the “polyreactivity (PSR sort gate)” value was “high polyreactivity”. With “QVQLVESGGGLVQAGGSLRLSCAASGFTFRIYAMGWYRQAPGKERELVAAITSVGSTYYADSVKGRFTISRDNAKNTVYLQMNRLKPEDTAVYYCNARATYYRFRYPYGYWGQGTQVTVSS” the entry was “high polyreactivity”. With “QVQLVESGGRLVQAGGSLRLSCAASGRIFATYAMGWYRQAPGKEWQLVAGITSGGRTNYADSVKGRFTISRDNAKNTVYLQMNSLKPEDTAVYYCDKRVWPRDQYGKRNPRMDYWGQGTQETVSS” the entry was “high polyreactivity”; with “QVQLVESGGGLVQAGGSLRLSCAASGRTFYRYAMGWYRQAPGKERELVAGITSGGITYYADSVKGRFTISRDNAKNTVYLQMNSLKPEDTAVYYCAASYAFFSYRAWYTSGNEYWGQGTQVTVSS”, “high polyreactivity”.

With “QFQLVESGGGLVQARGSLRLSCAASGRIFSWYAMGWYRQAPGKETELVAGLNRNGGSTYYPDSVKGRFTISRDNAKNTVYLQMNSQKPEDTAVYYCAKGQYYYTGDYDYWGQGTQVTVSS”, the “polyreactivity (PSR sort gate)” value is given as “high polyreactivity”. On to “QVQLVESGGGLVQAGGSLRLSCAASGNIIWGNAMGWYRQAPGKERELVAAISRRSGSTYYADSVKGRFTISRDNAKNTVYLQMNSLKPEDTAVYYCNTAGRVGTYDYWGQGTQVTVSS”, for which the “polyreactivity (PSR sort gate)” value is “high polyreactivity”.
